Source: US20020062009A1 (GlaxoSmithKline, published 2002)
Each block holds one binder with its values, some of them ahead of it.

Tests used:
[1] = target: T1, human erythropoietin receptor (EPOr), recombinant entire extracellular domain (human, UniProt P19235 25-250); assay: BIAcore 1000 SPR; antibody captured on immobilized protein A, monomeric EPOr in solution, 20 C (exponent as printed; kon and KD imply 10^-3)
T1 construct: extracellular domain; also called human EPOr; monomeric EPOr
T1 sequence (looked up): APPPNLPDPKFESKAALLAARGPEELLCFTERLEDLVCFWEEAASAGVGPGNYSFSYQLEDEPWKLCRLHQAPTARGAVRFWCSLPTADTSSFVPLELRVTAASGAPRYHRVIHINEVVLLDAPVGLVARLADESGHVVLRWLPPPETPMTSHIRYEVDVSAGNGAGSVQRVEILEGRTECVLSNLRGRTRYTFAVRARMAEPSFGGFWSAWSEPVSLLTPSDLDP
Method: (§1) A BIAcore analysis (Pharmacia) was performed to determine the binding affinity for human EPOr of murine 3G9 and CP3G9. The interaction of CP3G9 as well as murine 3G9 with EPOr was characterized using a BIAcore 1000 biosensor. Descriptions of the instrumentation and the sensor surfaces are described in Brigham-Burke et al., Anal. Biochem., 205:125-131 (1992).
(§2) CP3G9 was captured onto a sensor surface of immobilized protein A. The kinetic binding constants were determined by passing solutions of monomeric EPOr over the surface and monitoring binding versus time. The equilibrium dissociation constant for the interaction was then derived from the ratio of the kinetic constants. The parent murine 3G9 was captured onto a surface of protein A captured rabbit anti-mouse Fc specific polyclonal antibody. The kinetics and dissociation constant for the interaction with EPOr was determined as described above. All measurements were made in 10 mM sodium phosphate, 150 mM NaCl pH 7.23 mM EDTA and 0.005% Tween 20. The flow rate was 60 uL/min. The temperature was 20° C.

[2] = target: T1, human erythropoietin receptor (EPOr), …; assay: BIAcore 1000 SPR; antibody captured on immobilized protein A, monomeric EPOr in solution, 20 C
Method: as §1, §2

[3] = target: T1, human erythropoietin receptor (EPOr), …; assay: BIAcore 1000 SPR
Method: as §1, §2

[4] = target: T1, human erythropoietin receptor (EPOr), …; assay: BIAcore 1000 SPR; antibody captured on immobilized protein A, monomeric EPOr in solution, 20 C; KD from ratio of kinetic constants
Method: as §1, §2

[5] = target: T1, human erythropoietin receptor (EPOr), …; assay: BIAcore 1000 SPR; antibody captured by protein A-bound rabbit anti-mouse Fc, monomeric EPOr in solution, 20 C
Method: as §1, §2

[6] = target: T1, human erythropoietin receptor (EPOr), …; assay: BIAcore 1000 SPR; antibody captured by protein A-bound rabbit anti-mouse Fc, monomeric EPOr in solution, 20 C (exponent as printed; kon and KD imply 10^-3)
Method: as §1, §2

[7] = target: T1, human erythropoietin receptor (EPOr), …; assay: BIAcore 1000 SPR; antibody captured by protein A-bound rabbit anti-mouse Fc, monomeric EPOr in solution, 20 C; KD from ratio of kinetic constants
Method: as §1, §2

[8] = target: T2, purified human alpha v beta 3 integrin (biotinylated) (human, UniProt P06756 31-1048; P05106 27-788, limits assumed); assay: ORIGEN electrochemiluminescence; antibody dilutions with biotinylated purified integrin, captured on streptavidin beads
T2 construct: also called αvβ3; human integrin αvβ3
Method: The relative binding avidity of CPB9 was compared to that of the original murine B9 antibody as follows. CPB9 antibodies present in culture supernatants from cells maintained in culture for 5 days after transfection with the expression constructs were compared to the parental murine B9 antibody using the ORIGEN technology (IGEN Inc, Gaithersburg, Md.). Briefly, different dilutions of the B9 variants were incubated with purified human αvβ3 integrin which had previously been biotinylated, and an electrochemiluminescent TAG moiety specific for the antibody C regions. B9 variant antibody bound to the integrin was measured by capturing the immune complexes onto streptavidin beads followed by analysis on the ORIGEN instrument.

T2 sequence (P06756 31-1048 limits assumed, form in doubt, chain 1 of 2): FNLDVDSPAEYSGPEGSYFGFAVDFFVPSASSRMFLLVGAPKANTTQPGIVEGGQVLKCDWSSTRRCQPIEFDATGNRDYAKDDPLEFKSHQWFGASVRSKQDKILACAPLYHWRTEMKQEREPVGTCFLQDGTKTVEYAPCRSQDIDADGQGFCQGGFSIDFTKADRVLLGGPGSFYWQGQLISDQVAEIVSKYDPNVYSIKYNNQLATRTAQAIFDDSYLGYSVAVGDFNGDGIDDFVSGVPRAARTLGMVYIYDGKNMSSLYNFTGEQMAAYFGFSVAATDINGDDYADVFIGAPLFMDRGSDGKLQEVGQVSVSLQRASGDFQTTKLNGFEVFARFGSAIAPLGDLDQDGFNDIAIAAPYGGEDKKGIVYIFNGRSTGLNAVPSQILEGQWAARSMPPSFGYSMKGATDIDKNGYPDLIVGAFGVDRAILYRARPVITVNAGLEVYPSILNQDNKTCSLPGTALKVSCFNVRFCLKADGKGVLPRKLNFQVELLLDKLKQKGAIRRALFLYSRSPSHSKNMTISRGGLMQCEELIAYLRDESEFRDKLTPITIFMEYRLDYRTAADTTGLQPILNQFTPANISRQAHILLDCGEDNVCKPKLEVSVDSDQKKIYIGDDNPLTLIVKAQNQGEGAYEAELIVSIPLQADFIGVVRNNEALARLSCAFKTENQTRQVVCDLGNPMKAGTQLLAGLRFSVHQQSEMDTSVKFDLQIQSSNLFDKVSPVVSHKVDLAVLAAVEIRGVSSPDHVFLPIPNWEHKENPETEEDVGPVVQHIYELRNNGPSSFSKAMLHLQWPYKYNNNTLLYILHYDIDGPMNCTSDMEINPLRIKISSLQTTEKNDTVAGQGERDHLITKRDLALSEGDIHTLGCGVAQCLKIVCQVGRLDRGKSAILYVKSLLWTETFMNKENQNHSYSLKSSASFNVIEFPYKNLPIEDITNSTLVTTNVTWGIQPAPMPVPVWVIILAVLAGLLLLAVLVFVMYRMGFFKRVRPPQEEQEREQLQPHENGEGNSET
T2 sequence (P05106 27-788 limits assumed, form in doubt, chain 2 of 2): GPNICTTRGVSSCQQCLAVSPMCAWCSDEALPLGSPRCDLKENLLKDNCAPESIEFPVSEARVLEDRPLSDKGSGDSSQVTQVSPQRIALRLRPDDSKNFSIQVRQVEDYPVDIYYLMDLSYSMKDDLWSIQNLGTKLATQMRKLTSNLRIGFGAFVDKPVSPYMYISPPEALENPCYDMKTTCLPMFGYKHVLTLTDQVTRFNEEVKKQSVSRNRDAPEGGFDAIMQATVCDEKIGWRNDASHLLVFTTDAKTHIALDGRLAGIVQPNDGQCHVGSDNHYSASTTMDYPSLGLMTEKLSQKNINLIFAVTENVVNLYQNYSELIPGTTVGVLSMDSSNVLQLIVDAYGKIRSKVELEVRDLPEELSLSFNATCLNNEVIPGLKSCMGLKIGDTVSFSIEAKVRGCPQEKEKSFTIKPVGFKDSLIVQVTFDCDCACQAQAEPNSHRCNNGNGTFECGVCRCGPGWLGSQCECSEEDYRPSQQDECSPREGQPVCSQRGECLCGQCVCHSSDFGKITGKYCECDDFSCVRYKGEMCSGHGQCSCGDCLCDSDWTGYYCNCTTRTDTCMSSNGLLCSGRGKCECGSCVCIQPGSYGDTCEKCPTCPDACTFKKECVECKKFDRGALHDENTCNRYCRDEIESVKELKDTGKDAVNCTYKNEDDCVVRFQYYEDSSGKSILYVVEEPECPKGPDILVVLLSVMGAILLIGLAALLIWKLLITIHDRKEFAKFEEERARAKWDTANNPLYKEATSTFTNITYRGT

- koff [1]: 0.0091 s⁻¹
- kon [2]: 1e+06 M⁻¹ s⁻¹
- fold difference of KD against murine 3G9 [3]: ≤ 3 fold
- Kd [4]: 9.1 nM
B1: engineered 3G9 (CP3G9), chimpanzee framework engineered anti-erythropoietin receptor antibody (antibody, IgG1, V domains shown)
VH: QVQLVQSGAEVKKPGSSVKVSCKASGSTFTSYWMHWVKQAPGQGLEWIGRIDPNSGGTKDNEKFKSKATLNVDKSTNIAYMELTSLRSEDTAVYYCARETYYDSSFAYWGQGTMVTVS
VL: DIVMTQSPSSLSASVGDRVTITCKASQNVGTNVAWYQQKPGKAPKALIYSASYRYSGVPDRFSGSGSGTDFTLTISSLQPEDFATYYCQQYNSYPLTFGGGTKVEIK
notes: They were ligated into vectors with IgG1,kappa antibody constant regions and expressed in COS cells; also called chimpanzee version of 3G9

- kon [5]: 1.2e+06 M⁻¹ s⁻¹
- koff [6]: 0.004 s⁻¹
- Kd [7]: 3.3 nM
B2: murine anti-erythropoietin receptor antibody 3G9 (antibody, V domains shown)
VH: QVQLQQPGAELVKSGASVKLSCKASGSTFTSYWMHWVKQRPGRGLEWIGRIDPNSGGTKDNEKFKSKATLTVDKPSSTAYMQLSSLTSEDSAVYYCARETYYDSSFAYWGQGTLVTVSA
VL: DIVMTQSQKFMSTSVGDRVSVTCKASQNVGTNVAWYQQKPGQSPKALIYSASYRYSGVPDRFTGSGSGTDFTLTISNVQSEDLAEYFCQQYNSYPLTFGAGTKLELKR
notes: Murine monoclonal antibody; also called murine 3G9; parent murine 3G9

- fold displacement of binding curve against murine B9 [8]: ~3 fold
B3: engineered B9 (CPB9), chimpanzee framework engineered anti-integrin antibody (antibody, IgG1, V domains shown)
VH: QVQLVQSGAEVKKPGSSVKVSCKASGYTFSSYWIEWVKQAPGQGLEWIGEILPRSGNTNYNEKFKGKASFNADTSTNIAYMELTSLRSEDTAVYYCSSRGVRGSMDYWGQGTLVTVSS
VL: DIQMTQSPSSLSASVGDRVTITCRSSQDISNFLNWYQQKPGKAPKLLIYYTSTLHSGVPSRFSGSGSGTDYTLTISSLQPEDFATYYCQQGNTLPWTFGGGTKVEIKR
notes: They were ligated into vectors with IgG1,kappa antibody constant regions and expressed in COS cells; Tested as culture supernatant
